Measured values published in patent US20240400663A1 (Regeneron, published 2024).

Columns and labels:
Experiment in all cases: cell-based or functional assay
[1] = molecular target: PfRH5 of Plasmodium falciparum strain D10 (on live parasites) (Plasmodium falciparum)
[2] = molecular target: PfRH5 of Plasmodium falciparum strain Dd2 (on live parasites) (Plasmodium falciparum)
[3] = molecular target: PfRH5 of Plasmodium falciparum strain 7G8 (on live parasites) (Plasmodium falciparum)
[4] = molecular target: PfRH5 of Plasmodium falciparum strain W2-mef (on live parasites) (Plasmodium falciparum)
[5] = molecular target: PfRH5 of Plasmodium falciparum strain HB3 (on live parasites) (Plasmodium falciparum)
[6] = molecular target: PfRH5 of Plasmodium falciparum strain FCR-1/FVO (on live parasites) (Plasmodium falciparum)
[7] = molecular target: PfRH5 of Plasmodium falciparum strain Cam3.II (on live parasites) (Plasmodium falciparum)
[8] = molecular target: PfRH5 of Plasmodium falciparum strain RF7 (on live parasites) (Plasmodium falciparum)

| Binder | Max growth inhibition (%) D10 [1] [%] | Max growth inhibition (%) Dd2 [2] [%] | Max growth inhibition (%) 7G8 [3] [%] | Max growth inhibition (%) W2-mef [4] [%] | Max growth inhibition (%) HB3 [5] [%] | Max growth inhibition (%) FCR-1/FVO [6] [%] | Max growth inhibition (%) Cam3.II [7] [%] | Max growth inhibition (%) RF7 [8] [%] |
| --- | --- | --- | --- | --- | --- | --- | --- | --- |
| H1H29138P (antibody, V domains shown) VH: QVQLVESGGGVVQPGRSLRLSCAASGFTFSTYGMHWVRQAPGKGLEWVAVIWYDGTNKYYADSVKGRFTISRDNSKNTLYLQMISLRAEDTAVYYCARDPSGGDHYYYYGMDVWGQGTTVTVSS VL: DIQMTQSPSSLSASVGDRITITCQASQDISNYLNWYQQKPGKAPNLLISDASDLETGVPSRFSGSGSGTDFTFTISSLQPEDFATYYCQQYDNIPITFGQGTRLEIKR | 57.1 | 74.4 | 57.4 | 66.4 | 51.4 | 84.1 | 48.7 | 51.4 |
| H1H29146P2 (antibody, V domains shown) VH: EVQLVESGGGLVQPGGSLQLSCAASGFAFSDSAIYWVRQASGKGLEWVGRIRNKANRFATAYGASVKGRFSIHRDDSKNTAYLQMNSLKTEDTAVYYCARHGHDTLTEGYGMDVWGQGTTVTVSS VL: not shown | 10.8 |  | 19.1 | 0.57 | 33.9 | 7.32 | 8.18 | 5.97 |
| H1H29196P2 (antibody, V domains shown) VH: EVQLVESGGDLVQPGGSLRLSCAASGFAVNGDYFSWVRQAPGKGLEWISVIYSSGNTYYADSVKGRFTISRHNSKNTLYLQMSSLRPEDTAVYYCARDFPPMSGADYWGQGTLVTVSS VL: not shown | 14.3 | -1.65 | 23.4 | 17 | 26.8 | 21.9 | 6.09 | 3.78 |
| H1H29163P2 (antibody, V domains shown) VH: QVQLVQSGAEVKKPGASVKVSCKTSGYTFTAYYIHWVRQAPGQGLEWMGWINPNNGDTNYALRFQGRVTMTRDMSINTAYMELRGLRSDDTAVYYCARDDLAAAGIGWFDSWGQGTLVTVSS VL: not shown |  | 61.2 | 62.6 | 63.7 | 56.5 | 64.5 | 46.7 | 10.7 |
| H1H29183P2 (antibody, V domains shown) VH: QVQLVQSGPEVKKPGASVKVSCKASGYTFTSYGISWVRQAPGQGLEWLGWISGFNGRTDYTEKLQDRITMTTDRSSSTAYMELRSLRYDDTAVYYCARDGLEKLGDYWGQGTLVTVSS VL: not shown | 6.79 | 0.68 | 17.8 | -0.55 | 4.92 | 16.1 | 8.66 | -6.27 |
| H1H29192P2 (antibody, V domains shown) VH: QVQLVQSGAEVKKPGASVRVSCMASGYTFTGYYMHWVRQAPGQGLEWMGWINPNSGGTKYAQKFQGRVTMTRDTSISTAYMELSRLRSDDTAVYYCAREEVDDFWSGYLDYWGQGTLVTVSS VL: not shown | 8.7 | -15.2 | 12.4 | 4.35 | 5.62 | 15.1 | -3.38 | -7.69 |
| H1H29141P (antibody, V domains shown) VH: QVQLVESGGGVVQPGRSLRLSCAASGFTFSSYGMHWVRQAPGKGLEWVTFISFDERNKYYADSVKGRFTISRDNSKNTLYLQMNSLRAEDTAMYYCASEVGYSFGHDAFDIWGQGTMVTVSS VL: not shown | 50 | 65.3 | 54.6 | 56.2 | 50 | 74.2 | 49.3 | 32.1 |
| H1H29149P2 (antibody, V domains shown) VH: QVQLQESGPGLVKPSQTLSLTCTVSGGSISSGGYYWNWIRQHPGKGLEWIGYIYYSGSTYYNPSLKSRVTISVDTSKNQFSLKLGSVTAADTAVYYCARAPPYNWFDYWGQGTLVTVSS VL: not shown | 66 |  |  | 42.8 | 40 | 58 | 36.2 | 14.7 |
| H1H29094P (antibody, V domains shown) VH: not shown VL: DIQMTQSPSSLSASVGDRVTITCQASQDINRDLNWYQQKSGKGPKLLIYDASNLETGVPSRFSGNRFGTDFTFTISRLQPEDIATYFCQQYKNLPYTFGQGTKLEIKR | 35.9 | 41.6 | 29.9 | 34.9 | 45.4 | 51.2 | 26.2 | 15.2 |
| H1H29125P (antibody, V domains shown) VH: QVQLVESGGGVVQPGRSLRLSCAASGFTFSSYGMHWVRQAPGKGLEWMAVISYDGSNKYYADSVKGRFTISRDNSKNTLFLQMNSLRPEDTAVYYCAQDGSSAIYYFYGMDVWGQGTTVTVSS VL: DIQMTQSPSSLSASIGDRVTITCRASQDINNYLAWFQQKPGKAPKSLIYAASSLQSGVPSKFSGSGSGTDFTLTISSLQPEDFATYYCLQYNSYHPTFGQGTKLEIKR | 75.4 | 51.4 | 47 | 64.6 |  | 67.6 | 42.7 | 21 |
| H1H29166P2 (antibody, V domains shown) VH: EVQLVESGGGLLQPGRSLRLSCVASGFTFDDYAMHWVRQAPGKGLEWVSGISWNSESIGYADSVRGRFTISRDNAKNSLYLQMNSLRAEDTALYYCAKAPYSGTYFEYFRHWGQGTLVTVSS VL: not shown | 70.9 | 60 | 54.6 | 61.9 | 54.9 | 69.7 | 55.9 | 19.4 |
| H1H29151P2 (antibody, V domains shown) VH: QVQLVESGGGLVKPGGSLRLSCAASGFTFSDYYMNWVRQAPGKGLEWVSYISNSGNTQYYADSVKGRFTISRDNAKNSLFLQMNSLRAEDTAVYYCTREGLEYSSSEPFDYWGQGTLVTVSS VL: not shown | 38.7 | 58 | 47.5 | 53.9 | 31.7 | 53.7 | 26.3 | 18.3 |
| H1H29179P2 (antibody, V domains shown) VH: QVQLQESGPGLVKPSQTLSLTCTVSGGSISSSGYYWSWIRQHPGRGLEWIGYIYYSGSTYYNPSLKSRVTISVDTSKNQFSLKLNSVTAADTAVYYCARVDYGSGSSFDYWGQGTLVTVSS VL: not shown | 62.5 | 13.5 | 34.1 | 22.9 | 40.9 | 49 | 33.4 | -2.99 |
| H1H29171P2 (antibody, V domains shown) VH: QVQLVESGGGVVQPGRSLRLSCAASGFTFSSYGMHWVRQAPGKGLEWVAVISYDGSNKYYADSVKGRFTISRDNSKNTLYLQMNSLRAEDTAVYYCAKDDWNYDAFDIWGQGTMVTVSS VL: not shown | 10.6 | 7.71 | 17 | 0.74 | 0.52 | 11.7 | 5.45 | -12.5 |
